Results on two substances are retold here after article PMC10465942, “N-acetylmuramic acid recognition by MurK kinase from the MurNAc auxotrophic oral pathogen Tannerella forsythia” (The Journal of Biological Chemistry, 2023).

A word on the stoichiometry N: it is the number of molecules, sites or subunits per partner or assembly.

Experiment [1] deals with K1058, paralogous MurNAc kinase of Tannerella forsythia (Tannerella forsythia). Nature of the experiment: SEC; SD200 16/60 column, 4 °C; MurK in 200 mM NaCl, 50 mM MES, pH 6; K1058 in 750 mM NaCl, 25 mM Tris-HCl, pH 8.5; apparent mass about 60 kDa against 32.4 and 32.3 kDa for the monomers.
Experiment [2] has as its target Tannerella forsythia ATP-dependent murein sugar kinase (MurK) (Tannerella forsythia). Described as above.

On to “K1058, paralogous MurNAc kinase of Tannerella forsythia (enzyme)”, for which the stoichiometry N in experiment [1] turned out to be 2.

For “Tannerella forsythia ATP-dependent murein sugar kinase (MurK) (enzyme)”, in experiment [2], the stoichiometry N worked out at 2.
